In article PMC11960969, “Mdga2 deficiency leads to an aberrant activation of BDNF/TrkB signaling that underlies autism-relevant synaptic and behavioral changes in mice” (PLOS Biology, 2025) one finds log2FC and Class data, which are given here for ten molecules.

The subject of the assay is hippocampal proteins. Nature of the assay: DIA quantification proteomics, hippocampus of Mdga2+/- vs WT mice. The arrangement: species or system mouse. Conditions: S3 Table, downregulated DEPs; for log2FC: Mdga2+/- vs WT mouse hippocampus (HET-HIP-VS-WT-HIP), SE, pvalue and adj_pvalue in own columns c3-c5; for Class: regulation class of the protein, HET-HIP-VS-WT-HIP. An outline of the steps: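 Hippocampi from 1.5–2-month-old male Mdga2+/− mice and WT littermates; 100 μg protein trypsin-digested, peptides high-pH fractionated. DDA-built spectral library, DIA by nano-LC–MS/MS with Spectronaut and mProphet QC. DEPs called at fold change >1.1 and p <0.05.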

B1: sp¦P28076¦PSB9_MOUSE (protein, UniProt P28076 21-219, looked up)
Proteasome subunit beta type-9: TTIMAVEFDGGVVVGSDSRVSAGTAVVNRVFDKLSPLHQRIFCALSGSAADAQAIADMAAYQLELHGLELEEPPLVLAAANVVKNISYKYREDLLAHLIVAGWDQREGGQVYGTMGGMLIRQPFTIGGSGSSYIYGYVDAAYKPGMTPEECRRFTTNAITLAMNRDGSSGGVIYLVTITAAGVDHRVILGDELPKFYDE
On to B1, for which the log2FC is recorded as -1.875 and the Class entry is given as “Down”.

B2: sp¦Q922B6¦TRAF7_MOUSE (protein, UniProt Q922B6 1-594, looked up)
E3 ubiquitin-protein ligase …: MPPINTPRRSDSAISVRSLHSESSMSLRSTFSLPEEEEEPEPLVFAEQPSVKLCCQLCCSVFKDPVITTCGHTFCRRCALKSEKCPVDNAKLTVVVNNIAVAEQIGELFIHCRHGCHAAGTGKPGVFEVDPRGCPFTIKLSARKDHESSCDYRPVRCPNNPSCPPLLKMNLEAHLKECEHIKCPHSKYGCTFIGNQDTYETHLETCRFEGLKEFLQQTDDRFHEMHVALAQKDQEIAFLRSMLGKLSEKIDQLEKSLELKFDVLDENQSKLSEDLMEFRRDASMLNDELSHINARLNMGILGSYDPQQIFKCKGTFVGHQGPVWCLCVYSMGDLLFSGSSDKTIKVWDTCTTYKCQKTLEGHDGIVLALCIQGCKLYSGSADCTIIVWDIQNLQKVNTIRAHDNPVCTLVSSHNMLFSGSLKAIKVWDIVGTELKLKKELTGLNHWVRALVAAQSYLYSGSYQTIKIWDIRTLDCIHVLQTSGGSVYSIAVTNHHIVCGTYENLIHVWDIESKEQVRTLTGHVGTVYALAVISTPDQTKVFSASYDRSLRVWSMDNMICTQTLLRHQGSVTALAVSRGRLFSGAVDSTVKVWTC
Regarding B2, the log2FC is on record as -2.686 and the Class entry was “Down”.

B3: sp¦Q9EPQ7¦STAR5_MOUSE (protein, UniProt Q9EPQ7 1-213, looked up)
StAR-related lipid transfer …: MDPSWATQESEAVAEKVLRYRRDASGWKKCREGNGVSISWRPSEEFPGNLYRGEGILCGTPEEVWDCIKPVASGLREKWDDNVSSFEIVQSITDMLCVSRTSTPSAAMKLISPRDFVDLVLVKKYEDGTISSNATHVEHPLCPPKPGFVRGFNHPCGCFCEPLPGDPNKTNLVTFFQTDLSGYLPQSVVDSFFPRSMAEFYPNLQKAVRKFHH
For B3, the log2FC is on record as -1.896 and the Class result was “Down”.

B4: sp¦Q3TBL6¦TP8L3_MOUSE (protein, UniProt Q3TBL6 1-204, looked up)
Tumor necrosis factor …: MDSDSGEQSEGEPGTAAGPHVFSSKNLALQAQKKILSKIASKTVANMLIDDTSSEIFDELYKVTEIHTHNKKEAHKIMKDAIKVAIKIGILYRNKQFSQEEVIIVEKLRKKLNQTAMTMVSFYEVEYTFDTNVLSKLLHECKDLVHELVQRHLTPRTHGRINHVFNHFADVEFLSTLYGPHGNCRPNLKRICEGINKLLDDKIL
Regarding B4, the log2FC is -2.713 and the Class result is “Down”.

B5: sp¦Q8BUB4¦WDFY2_MOUSE (protein, UniProt Q8BUB4 1-400, looked up)
WD repeat and FYVE …: MAAEIQPQPLTRKPILLQRVEGSQEVVNMAVIVPKEEGVISVSEDRTVRVWLKRDSGQYWPSIYHAMPSPCSCMSFNPETRRLSIGLDNGTISEFILSEDYNKMTPVKNYQAHQSRVTMVLFVLELEWVLSTGQDKQFAWHCSESGQRLGGYRTSAVASGLQFDVETRHVFIGDHSGQVTILKLEQENCTLLTSFRGHTGGVTALCWDPVQRVLFSGSSDHSVIMWDIGGRKGTAIELQGHNDKVQALSYAQHTRQLISCGGDGGIVVWNMDVERQETPEWLDSDSCQKCDQPFFWNFKQMWDSKKIGLRQHHCRKCGKAVCGKCSSKRSSIPLMGFEFEVRVCDSCHEAITDEERAPTATFHDSKHNIVHVHFDATRGWLLTSGTDKVIKLWDMTPVVS
Regarding B5, the log2FC is -1.823 and the Class entry was “Down”.

B6: sp¦O54983¦CRYM_MOUSE (protein, UniProt O54983 1-313, looked up)
Ketimine reductase …: MKRAPAFLSAEEVQDHLRSSSLLIPPLEAALANFSKGPDGGVMQPVRTVVPVAKHRGFLGVMPAYSAAEDALTTKLVTFYEGHSNTAVPSHQASVLLFDPSNGSLLAVMDGNVITAKRTAAVSAIATKLLKPPGSDVLCILGAGVQAYSHYEIFTEQFSFKEVRMWNRTRENAEKFASTVQGDVRVCSSVQEAVTGADVIITVTMATEPILFGEWVKPGAHINAVGASRPDWRELDDELMRQAVLYVDSREAALKESGDVLLSGADIFAELGEVISGAKPAHCEKTTVFKSLGMAVEDLVAAKLVYDSWSSGK
With B6, the log2FC is recorded as -1.898 and the Class result is “Down”.

B7: sp¦Q9ERI2¦RB27A_MOUSE (protein, UniProt Q9ERI2 2-221, looked up)
Ras-related protein Rab-27A: SDGDYDYLIKFLALGDSGVGKTSVLYQYTDGKFNSKFITTVGIDFREKRVVYRANGPDGAVGRGQRIHLQLWDTAGQERFRSLTTAFFRDAMGFLLLFDLTNEQSFLNVRNWISQLQMHAYCENPDIVLCGNKSDLEDQRAVKEEEARELAEKYGIPYFETSAANGTNISHAIEMLLDLIMKRMERCVDKSWIPEGVVRSNGHTSADQLSEEKEKGLCGC
Regarding B7, the log2FC was -2.259 and the Class result was “Down”.

B8: sp¦Q8K4I3¦ARHG6_MOUSE (protein, UniProt Q8K4I3 1-771, looked up)
Rho guanine nucleotide …: MNPEERLVTWLISLGVLESPKKTVCDPEEFLKSSLKNGVVLCKLINRLLPGSVEKYCLEPQTEADCIDNINDFLKGCATLQVEVFEPDDLYSGANFSKVLNTLLAVNKATEDQLSERPCGRSSSLSAATSSQTNPQVAVPSTAPEQHSEEKAEMTENGSHQLIVKARFNFKQTNEDELSVCKGDIIYVTRVEEGGWWEGTLNGRTGWFPSNYVREIKPSERPLSPKAIKGFDTAPLTKNYYTVVLQNILDTEKEYAKELQSLLVTYLRPLQSNNNLSTVEFTCLLGNFEEVCTFQQTLCQALEECSKFPENQHKVGGCLLNLMPHFKSMYLAYCANHPSAVNVLTQHSDDLERFMENQGASSPGILILTTSLSKPFMRLEKYVTLLQELERHMEDTHPDHQDILKAIIAFKTLMGQCQDLRKRKQLELQILSEPIQAWEGDDIKTLGNVIFMSQVVMQHGACEEKEERYFLLFSSVLIMLSASPRMSGFMYQGKIPIAGMVVNRLDEIEGSDCMFEITGSTVERIVVHCNNNQDFQEWMEQLNRLTKGPTSCGSLSKTSSSSCSTHSSFSSTGQPRGPLEPPQIIKPWSLSCLRPAPPLRPSAALGYKERMSYILKESSKSPKTMKKFLHKRKTERKASEEEYVIRKSTAALEEDAQILKVIEAYCTSASFQQGTRKDSVPQVLLPEEEKLIIEETRSNGQTIIEEKSLVDTVYALKDEVKELKQENKKMKQCLEEELKSRKDLEKLVRKLLKQTDECIRSESSSKTSILQ
On to B8, for which the log2FC is -1.975 and the Class result is “Down”.

B9: sp¦P06802¦ENPP1_MOUSE (protein, UniProt P06802 1-906, looked up)
Ectonucleotide …: MERDGDQAGHGPRHGSAGNGRELESPAAASLLAPMDLGEEPLEKAERARPAKDPNTYKVLSLVLSVCVLTTILGCIFGLKPSCAKEVKSCKGRCFERTFSNCRCDAACVSLGNCCLDFQETCVEPTHIWTCNKFRCGEKRLSRFVCSCADDCKTHNDCCINYSSVCQDKKSWVEETCESIDTPECPAEFESPPTLLFSLDGFRAEYLHTWGGLLPVISKLKNCGTYTKNMRPMYPTKTFPNHYSIVTGLYPESHGIIDNKMYDPKMNASFSLKSKEKFNPLWYKGQPIWVTANHQEVKSGTYFWPGSDVEIDGILPDIYKVYNGSVPFEERILAVLEWLQLPSHERPHFYTLYLEEPDSSGHSHGPVSSEVIKALQKVDRLVGMLMDGLKDLGLDKCLNLILISDHGMEQGSCKKYVYLNKYLGDVNNVKVVYGPAARLRPTDVPETYYSFNYEALAKNLSCREPNQHFRPYLKPFLPKRLHFAKSDRIEPLTFYLDPQWQLALNPSERKYCGSGFHGSDNLFSNMQALFIGYGPAFKHGAEVDSFENIEVYNLMCDLLGLIPAPNNGSHGSLNHLLKKPIYNPSHPKEEGFLSQCPIKSTSNDLGCTCDPWIVPIKDFEKQLNLTTEDVDDIYHMTVPYGRPRILLKQHHVCLLQQQQFLTGYSLDLLMPLWASYTFLRNDQFSRDDFSNCLYQDLRIPLSPVHKCSYYKSNSKLSYGFLTPPRLNRVSNHIYSEALLTSNIVPMYQSFQVIWHYLHDTLLQRYAHERNGINVVSGPVFDFDYDGRYDSLEILKQNSRVIRSQEILIPTHFFIVLTSCKQLSETPLECSALESSAYILPHRPDNIESCTHGKRESSWVEELLTLHRARVTDVELITGLSFYQDRQESVSELLRLKTHLPIFSQED
For B9, the log2FC is given as -2.366 and the Class result was “Down”.

B10: sp¦Q5PR69¦CRAD_MOUSE (protein, UniProt Q5PR69 1-1291, looked up)
Capping protein-inhibiting …: MGARAFSHDSIFIPDGGAESEQTVQAMSQDNILGKVKTLQRQLGKNIKFGQRPSNAIPMKKAGSTDASSEEDFVLTSPMEIVTQQDIVPSDTENKSSDTPSSSSPLNLPEAGSDMEEKVAPVKPSRPKRHLSSAGTIESVNLDAIPLAIARLDNSAARHKLAVKPKNQRVSRKHRWLAQDRQNEPGSFESQSSLDQNGQLGEDKHIWHGEEPEPLESHEEKRLHEEYWRELEAKCKRQKAEAAEKRRQEEQRRQALERRLWEESLRQELLEEEEEGEEEEEVKEEGEEGEEVGLQPRAGKVPPEEGHQSGPEEQRCTEQELGGADDPARLEAEERRREQEEAERQAEKLRQREAERQEEEQKQREAERQEEEARQCEAERQAEKLRQREAERQEEEARQREAERQAEKLRQREAERQEEELRQREEAERQEKLRQRDAESQEEELRQREAERQRAQEEDAKGMLQEEEEEAKRIEELKGKETPEPLVEEGPQSPEGESQPWLTDDADQRSPLQRDLEKPGEREREDLESAGQREIAEEPRGEGEPAEQSGDLDAHCGGVDGEGKETAQTDSPQPQERQMEGTPAPEENEATAADIDRKVEELRWQEVDERQTMPRPYTFQVSSGSRQILFPKVNLSPVTPAKDASLAPAAQEPPAPRGAASHALPSALSIPHTAILVTGAQLCGPAVNLSQIKDTACKSLLGLSEEKRPMDVPTVESRAGSGKSRPAPESPSNAAALAEWASIRSRILKNSEGDQRGDREPARAGDEPVPRARCDSRGNVRRTPPVNAKFSIMPAWQKFSDSGAETFRQSLDGESGRKKPGLAPSEETAPQPHAAAQQEVSQEPPDTTDGCKFAKDLPSFLVPGLPSPQKAASRTESTTTLDSETTSDVGNPDPAMPGGEEKASPFGIKLRRTNYSLRFHCDQQAEQKKKKRHSSTGDSVGGATPATGSVSGESEPEATFLKHGPSLPQERKPALSPRKDSAESHSSGHYVAVAQSGLPPASGQTPAPEQDRAVSKMPSMQKPALAPKPASQTPPSSPLSKLSRPHLVELLARRAGKLDSEPSETAKESSDNQPPSPSLPEELKGQKRDEKDVPEKKPASPPLPAGQQERPSLIPETGRKEKPVLQSRHSLDGSKVTEKVETAQPLWITLALQKQKGFREQQATREERKQAREAKQAEKLSKETVSVSLQPGSSRASKTAPVHKPAAPSEEKKPETAVSRLQRREQLKKSNTLPTSVTVEISDSAPSAALVKDVTKRFSTPDAAPVSTEPAWLALAKRKAKAWSDCPQIIK
Turning to B10, the log2FC was -1.882 and the Class result is listed as “Down”.
